This series concerns the molecule itself. The series is described as follows: crystal structure; covalent DNMT3B–DNMT3L–DNA complexes (25-mer Zebularine DNA: CGA, CGT or CAG) with SAH; proteins co-expressed in E. coli and purified as a complex; hanging-drop vapor diffusion, 0.1 M Tris-HCl pH 8.0, MgCl2, PEG, 0.2 mM AdoHcy, 4 °C or 16 °C.

Numbering of substitutions follows the chain as printed. Names may count otherwise.

B1: MTase domain of human DNMT3B (residues 562–853) (domain or fragment, UniProt Q9UBC3-1 562-853, looked up)
chain: KLYPAIPAARRRPIRVLSLFDGIATGYLVLKELGIKVGKYVASEVCEESIAVGTVKHEGNIKYVNDVRNITKKNIEEWGPFDLVIGGSPCNDLSNVNPARKGLYEGTGRLFFEFYHLLNYSRPKEGDDRPFFWMFENVVAMKVGDKRDISRFLECNPVMIDAIKVSAAHRARYFWGNLPGMNRPVIASKNDKLELQDCLEYNRIAKLKKVQTITTKSNSIKQGKNQLFPVVMNGKEDVLWCTELERIFGFPVHYTDVSNMGRGARQKLLGRSWSVPVIRHLFAPLKDYFACE
modifications: catalytic cysteine C651 covalently linked to the Zebularine of the DNA
notes: Two copies stand in the DNMT3L–DNMT3B–DNMT3B–DNMT3L heterotetramer; also called hDNMT3B; WT DNMT3B; source: E. coli BL21 DE3 (RIL), co-expressed with DNMT3L, purified (Ni-NTA, Heparin HP, SEC; after DNA cross-linking HiTrap Q XL, SEC); not shown: His6, N-terminal, cleaved; SUMO, N-terminal, cleaved
In the case of B1, the binding result was “binds”.

B2: K777A-mutated MTase domain of human DNMT3B (residues 562–853) (domain or fragment, UniProt Q9UBC3-1 562-853, looked up)
chain: B1 chain with K216A
modifications: catalytic cysteine C651 covalently linked to the Zebularine of the DNA
notes: also called K777A DNMT3B; source: E. coli BL21 DE3 (RIL), co-expressed with DNMT3L, purified (Ni-NTA, Heparin HP, SEC; after DNA cross-linking HiTrap Q XL, SEC); not shown: His6, N-terminal, cleaved; SUMO, N-terminal, cleaved
Regarding B2, the binding result is on record as “binds”.
